Data reported in patent US20180148504A1.

Key:
[1] = target: endogenous folate receptor alpha in human serum and plasma samples (human) (UniProt P15328); test: ECL sandwich competition; competitors 24H8.D3 capture / 19D4.B7 detection; plasma of sample #DLSO-015; MORAb-003 100 µg/mL
[2] = target: recombinant purified FRα (ECL assay calibrator) (human) (UniProt P15328); test: ECL sandwich capture 30G6.G6.G4.E9 / detection 19D2.G9; calibrator incubated overnight with 10 µg/mL MORAb-003
[3] = target: endogenous folate receptor alpha in human serum and plasma samples (human) (UniProt P15328); test: ECL sandwich competition; competitors 24H8.D3 capture / 19D4.B7 detection; serum samples; MORAb-003 100 µg/mL
[4] = target: endogenous folate receptor alpha in human serum and plasma samples (human) (UniProt P15328); test: ECL sandwich competition; competitors 24H8.D3 capture / 19D4.B7 detection; serum of sample #DLSO-015; MORAb-003 100 µg/mL
[5] = target: recombinant purified FRα (ECL assay calibrator) (human) (UniProt P15328); test: ECL sandwich competition; competitors 9F3 capture / 24F12 detection; FRα standard STD05; MORAb-003 50 µg/mL
[6] = target: recombinant purified FRα (ECL assay calibrator) (human) (UniProt P15328); test: ECL sandwich capture 30G6.G6.G4.E9 / detection 28H12.G9; calibrator incubated overnight with 10 µg/mL MORAb-003
[7] = target: recombinant purified FRα (ECL assay calibrator) (human) (UniProt P15328); test: ECL sandwich capture 24H8.D3 / detection 30G6.G6.G4.E9; calibrator incubated overnight with 10 µg/mL MORAb-003
[8] = target: recombinant purified FRα (ECL assay calibrator) (human) (UniProt P15328); test: ECL sandwich capture 6A2.G7 / detection 2F11.F8; calibrator incubated overnight with 10 µg/mL MORAb-003
[9] = target: recombinant purified FRα (ECL assay calibrator) (human) (UniProt P15328); test: ECL sandwich capture 30G6.G6.G4.E9 / detection 1D2.G8.G10; calibrator incubated overnight with 10 µg/mL MORAb-003
[10] = target: endogenous folate receptor alpha in human serum and plasma samples (human) (UniProt P15328); test: ECL sandwich capture 19D4.B7 / detection 19D2.G9; serum incubated overnight with 10 µg/mL MORAb-003
[11] = target: recombinant purified FRα (ECL assay calibrator) (human) (UniProt P15328); test: ECL sandwich capture 30G6.G6.G4.E9 / detection 5C12.H8; calibrator incubated overnight with 10 µg/mL MORAb-003
[12] = target: endogenous folate receptor alpha in human serum and plasma samples (human) (UniProt P15328); test: ECL sandwich capture 6A2.G7 / detection 1C6.E12.G8; serum incubated overnight with 10 µg/mL MORAb-003
[13] = target: recombinant purified FRα (ECL assay calibrator) (human) (UniProt P15328); test: ECL sandwich capture 26A9.C4 / detection 19D4.B7; calibrator incubated overnight with 10 µg/mL MORAb-003
[14] = target: endogenous folate receptor alpha in human serum and plasma samples (human) (UniProt P15328); test: ECL sandwich capture 1C6.E12.G8 / detection 19D4.B7; serum incubated overnight with 10 µg/mL MORAb-003
[15] = target: recombinant purified FRα (ECL assay calibrator) (human) (UniProt P15328); test: ECL sandwich capture 6A2.G7 / detection 1C6.E12.G8; calibrator incubated overnight with 10 µg/mL MORAb-003
[16] = target: recombinant purified FRα (ECL assay calibrator) (human) (UniProt P15328); test: ECL sandwich capture 19D4.B7 / detection 24H8.F3; calibrator incubated overnight with 10 µg/mL MORAb-003
[17] = target: recombinant purified FRα (ECL assay calibrator) (human) (UniProt P15328); test: ECL sandwich capture 6A2.G7 / detection 24H8.D3; calibrator incubated overnight with 10 µg/mL MORAb-003
[18] = target: endogenous folate receptor alpha in human serum and plasma samples (human) (UniProt P15328); test: ECL sandwich capture 24H8.F3 / detection 19D4.B7; serum incubated overnight with 10 µg/mL MORAb-003
[19] = target: recombinant purified FRα (ECL assay calibrator) (human) (UniProt P15328); test: ECL sandwich capture 1A8.G11.E7 / detection 30G6.G6.G4.E9; calibrator incubated overnight with 10 µg/mL MORAb-003
[20] = target: endogenous folate receptor alpha in human serum and plasma samples (human) (UniProt P15328); test: ECL sandwich, positive control +CONT: capture 26B3.F2 (f1) / detection 19D4.B7; serum incubated overnight with 10 µg/mL MORAb-003
[21] = target: recombinant purified FRα (ECL assay calibrator) (human) (UniProt P15328); test: ECL sandwich capture 19D4.B7 / detection 26A9.C4; calibrator incubated overnight with 10 µg/mL MORAb-003
[22] = target: recombinant purified FRα (ECL assay calibrator) (human) (UniProt P15328); test: ECL sandwich competition; competitors 9F3 capture / 24F12 detection; FRα standard STD08; MORAb-003 10 µg/mL
[23] = target: endogenous folate receptor alpha in human serum and plasma samples (human) (UniProt P15328); test: ECL sandwich competition; competitors 24H8.D3 capture / 19D4.B7 detection; plasma samples; MORAb-003 100 µg/mL
[24] = target: recombinant purified FRα (ECL assay calibrator) (human) (UniProt P15328); test: ECL sandwich capture 19D4.B7 / detection 19D2.G9; calibrator incubated overnight with 10 µg/mL MORAb-003

Sequence of recombinant purified FRα (ECL assay calibrator) (human) (P15328 25-234 limits assumed): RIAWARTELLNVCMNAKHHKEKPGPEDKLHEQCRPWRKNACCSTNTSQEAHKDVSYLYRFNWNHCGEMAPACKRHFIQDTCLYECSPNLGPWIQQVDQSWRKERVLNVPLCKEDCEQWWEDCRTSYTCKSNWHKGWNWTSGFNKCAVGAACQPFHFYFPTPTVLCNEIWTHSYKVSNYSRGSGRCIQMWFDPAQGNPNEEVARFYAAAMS
Sequence of endogenous folate receptor alpha in human serum and plasma samples (human) (P15328 25-234 limits assumed, form in doubt): as the sequence (P15328 25-234 limits assumed) above

percent inhibition (sample #DLSO-015, plasma) [1]: 10% | Drug Suppression of Cal Signal at 500 pg/mL [2]: -5% | percent inhibition (median, serum) [3]: 3% | percent inhibition (sample #DLSO-015, serum) [4]: 21% | % of signal without MORAb-003 (MORAb-003 interference) [5]: 75% | Drug Suppression of Cal Signal at 500 pg/mL [6]: -15% | Drug Suppression of Cal Signal at 500 pg/mL [7]: 0% | Drug Suppression of Cal Signal at 500 pg/mL [8]: -4% | Drug Suppression of Cal Signal at 500 pg/mL [9]: 8% | Drug suppression of serum [10]: -3.38% | Drug Suppression of Cal Signal at 500 pg/mL [11]: -7% | Drug suppression of serum [12]: -22.2% | Drug Suppression of Cal Signal at 500 pg/mL [13]: 72% | Drug suppression of serum [14]: -52% | Drug Suppression of Cal Signal at 500 pg/mL [15]: 6% | Drug Suppression of Cal Signal at 500 pg/mL [16]: -14% | Drug Suppression of Cal Signal at 500 pg/mL [17]: -9% | Drug suppression of serum [18]: -13% | Drug Suppression of Cal Signal at 500 pg/mL [19]: -6% | Drug suppression of serum [20]: 12.1% | Drug Suppression of Cal Signal at 500 pg/mL [21]: -14% | % of signal without MORAb-003 (MORAb-003 interference) [22]: 121% | percent inhibition (median, plasma) [23]: 4% | Drug Suppression of Cal Signal at 500 pg/mL [24]: -19%
B1: farletuzumab (MORAb-003) (antibody, part only; not given: Constant regions, V domains shown, not shown: another chain or arm of the molecule)
VH: EVQLVESGGGVVQPGRSLRLSCSASGFTFSGYGLSWVRQAPGKGLEWVAMISSGGSYTYYADSVKGRFAISRDNAKNTLFLQMDSLRPEDTGVYFCARHGDDPAWFAYWGQGTPVTVSS
VL: DIQLTQSPSSLSASVGDRVTITCSVSSSISSNNLHWYQQKPGKAPKPWIYGTSNLASGVPSRFSGSGSGTDYTFTISSLQPEDIATYYCQQWSSYPYMYTFGQGTKVEIK
